In experiment [1] the target is T1, Mouse MOG (R&D system) (mouse, UniProt Q61885 29-156, limits assumed).
T1 construct: also called mouse soluble MOG; soluble MOG
T1 sequence (looked up): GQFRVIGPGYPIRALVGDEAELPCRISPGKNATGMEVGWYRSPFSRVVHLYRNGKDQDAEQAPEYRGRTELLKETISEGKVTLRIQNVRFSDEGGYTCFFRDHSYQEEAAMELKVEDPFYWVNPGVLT
Put plainly: plasma MOG clearance in mice after IC17 0.2 mg/kg IV and MOG 0.021 mg/kg IV.

Experiment [2] has as its target T2, MOG on mouse oligodendrocytes (mouse, UniProt Q61885 29-246).
T2 construct: whole, on cells; also called MOG on the cell membrane; MOG expressed by cells in the brain
T2 sequence (looked up): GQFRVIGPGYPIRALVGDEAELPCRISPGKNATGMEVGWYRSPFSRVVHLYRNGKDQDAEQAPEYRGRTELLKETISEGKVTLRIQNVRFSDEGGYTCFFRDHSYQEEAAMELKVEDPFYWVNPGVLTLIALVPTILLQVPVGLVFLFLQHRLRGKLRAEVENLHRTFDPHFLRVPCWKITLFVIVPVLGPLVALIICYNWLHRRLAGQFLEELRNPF
Put plainly: flow cytometry on mouse brain cell suspension, O4-positive/CD45-negative oligodendrocyte fraction, 4 degrees C 60 min, detection with Alexa Fluor 647 anti-delta GK antibody; (a) MSA-free DPBS, (b) DPBS with 50 mg/mL MSA, (c) mouse plasma [a), (b), (c]. On the procedure:
The binding ability of albumin switch molecules against the membrane-type antigens were examined. Specifically, the antibodies (10 micro g/mL) indicated below were incubated with mouse brain cell suspension (2×10⁵ cells/well), in mouse serum albumin (MSA)-free DPBS (Thermo Fisher Scientific), DPBS containing Recombinant MSA (Albumin Bioscience) at 50 mg/mL, or mouse plasma (6 weeks old, male C57BL/6J mouse) at 4 degrees C. for 60 minutes. The mouse brain cell suspension was prepared from mouse brain using Adult Brain Dissociation Kit (Miltenyi Biotec) and gentleMACS (Miltenyi Biotec). Antibodies used for the reaction were IC17, MOG//IC17, and ABD094(H/L)-MOG//IC17. After the reaction, the cells were washed once with DPBS. […] Lastly, the cells were suspended in DPBS and analyzed by FACSCantoII (BD). The fluorescence intensities of Alexa Fluor 647 in the MOG-expressing oligodendrocyte O4-positive/CD45-negative fractions were measured (Schroeter, C. B. et al., One Brain-All Cells: A Comprehensive Protocol to Isolate All Principal CNS-Resident Cell Types from Brain and Spinal Cord of Adult Healthy and EAE Mice. Cells 2021, 10(3), 651).
In general terms: In flow cytometry, cells or beads pass a laser one at a time.

Experiment [3] concerns the target T3, IL6R on IL6R-CHO cells (CHO cells forced to express IL6R) (UniProt P08887 20-468, limits assumed).
T3 construct: whole, on cells; also called membrane-type IL6R; IL6R on the cell membrane
T3 sequence (looked up): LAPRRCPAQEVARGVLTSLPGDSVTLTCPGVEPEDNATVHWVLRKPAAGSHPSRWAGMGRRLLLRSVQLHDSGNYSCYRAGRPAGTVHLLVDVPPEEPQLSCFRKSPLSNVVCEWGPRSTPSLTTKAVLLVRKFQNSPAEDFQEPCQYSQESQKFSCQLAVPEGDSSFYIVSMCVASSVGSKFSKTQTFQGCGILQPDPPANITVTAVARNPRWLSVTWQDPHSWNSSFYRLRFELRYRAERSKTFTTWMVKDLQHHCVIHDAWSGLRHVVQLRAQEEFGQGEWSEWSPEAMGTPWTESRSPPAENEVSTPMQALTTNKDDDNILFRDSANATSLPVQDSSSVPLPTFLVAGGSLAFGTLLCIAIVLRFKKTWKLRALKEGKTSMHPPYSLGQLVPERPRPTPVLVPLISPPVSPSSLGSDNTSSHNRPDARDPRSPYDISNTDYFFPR
Description: flow cytometry on IL6R-CHO cells, 4 degrees C 60 min, detection with Alexa Fluor 647 anti-dGK antibody; (a) MSA-free medium, (b) medium with 50 mg/mL MSA, (c) mouse plasma [a), (b), (c]. The protocol: Binding ability of albumin switch molecules against the membrane-type antigens were verified. Specifically, the antibodies (10 micro g/mL) indicated below were incubated with IL6R-CHO cells (Chiome Bioscience, 2×10⁵ cells/well) in mouse serum albumin (MSA)-free CHO-S-SFM II medium (Thermo Fisher Scientific), 50 mg/mL Recombinant MSA (Albumin Bioscience)-containing medium, or mouse plasma (6-week-old male C57BL/6J mouse) at 4 degrees C. for 60 minutes. Antibodies used for the reaction were IC17, H54//IC17, and ABD094(H/L)-H54//IC17. After the reaction, the cells were washed three times with PBS(−). Addition of Alexa Fluor 647-labeled anti-dGK antibody (10 micro g/mL) was followed by incubation at 4 degrees C. for 30 minutes. Lastly, the cells were suspended in PBS(−) and analyzed by FACSCantoII (BD).

Experiment [4] addresses T4, human soluble IL-6R (human, UniProt P08887 20-357, limits assumed).
T4 construct: Soluble form; also called sIL6R; Human IL-6R
T4 sequence (looked up): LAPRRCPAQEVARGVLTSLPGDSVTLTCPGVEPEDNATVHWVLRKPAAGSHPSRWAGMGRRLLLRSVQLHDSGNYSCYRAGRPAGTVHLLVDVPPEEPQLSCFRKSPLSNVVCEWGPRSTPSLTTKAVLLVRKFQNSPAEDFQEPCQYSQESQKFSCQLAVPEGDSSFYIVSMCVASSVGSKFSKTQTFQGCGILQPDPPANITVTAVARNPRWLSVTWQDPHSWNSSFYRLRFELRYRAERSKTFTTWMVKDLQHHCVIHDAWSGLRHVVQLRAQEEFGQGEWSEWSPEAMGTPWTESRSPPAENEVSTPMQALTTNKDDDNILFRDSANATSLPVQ
Put plainly: Gyrolab xP complex assay in C57BL/6J mouse plasma: antibody 0.15 µg/mL and human soluble IL-6R 0.15 µg/mL (final), capture by biotinylated anti-human IL-6R antibody, detection with AF647-anti-delta GK; signal as % of H54//IC17. On the procedure:
First, to bind the albumin-binding portion to albumin in the plasma, the anti-human IL-6R antibodies (albumin switch molecules) indicated in Example 2 were diluted to 0.6 micro g/mL using C57BL/6J mouse plasma, and then incubated at room temperature for one hour. Next, for binding of the anti-human IL-6R antibody to the target antigen, one equivalent of human soluble IL-6R diluted to 0.6 micro g/mL in mouse plasma was added to the antibody solutions, and then the solutions were incubated at room temperature for one hour.
To detect the antigen-antibody complexes, first, the anti-delta GK antibody (AF647-anti-delta GK) was labeled using an Alexa flour 647 labeling kit (A20186, Thermo Fisher Scientific) according to the attached protocols. […]
Measurement of antigen-antibody complexes was performed using Gyrolab xP. […] The amount of the captured complex was detected by the fluorescence signal of AF647 (Detect PMT 25%). The fluorescence signal of AF647 was analyzed by Gyro Evaluator (version 3.6.2.30, Gyros Protein Technologies).

This note sets out measurements from patent publication US20260209363A1 (Chugai, published 2026).

B1: IC17 (antibody, human IgG1, kappa, V domains shown)
VH: QVQLQQSGPQLVRPGASVKISCKASGYSFTSYWMHWVNQRPGQGLEWIGMIDPSYSETRLNQKFKDKATLTVDKSSSTAYMQLSSPTSEDSAVYYCALYGNYFDYWGQGTTLTVSS
VL: DIQMTQSSSSFSVSLGDRVTITCKASEDIYNRLAWYQQKPGNAPRLLISGATSLETGVPSRFSGSGSGKDYTLSITSLQTEDVATYYCQQYWSTPYTFGGGTKLEVKR
notes: also called Anti-KLH antibody
In the case of B1, the binding result in experiment [1] is “no binding”; in experiment [2], “no binding (tested: 10 µg/mL)”; in experiment [3] it was “no binding (tested: 10 µg/mL)”; in experiment [4], “no binding (tested: 0.15 µg/mL)”.
